Data: patent publication US20190055304A1 (published 2019)

Legend:
[1] = biological target: T1, full length DNABII protein, HU-beta, from Staphylococcus aureus (Staphylococcus aureus, UniProt Q5HFV0 1-90); assay: adsorption ELISA, antigen coated; given as 'affinity', estimated as half-maximal binding concentration
T1 construct: mature; also called HU Sa; HU-beta of S. aureus; not shown: poly-histidine tag
T1 sequence: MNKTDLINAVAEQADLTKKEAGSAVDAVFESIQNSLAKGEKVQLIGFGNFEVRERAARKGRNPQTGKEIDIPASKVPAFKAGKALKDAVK

[2] = biological target: T2, DNABII protein from Haemophilus influenzae (IHF) (Haemophilus influenzae); assay: adsorption ELISA, antigen coated; printed as 'Affinity (pM)', half-maximal binding concentration
T2 construct: mature; also called H. influenzae; IHF from Haemophilus influenzae
T2 sequence (P43723 whole entry): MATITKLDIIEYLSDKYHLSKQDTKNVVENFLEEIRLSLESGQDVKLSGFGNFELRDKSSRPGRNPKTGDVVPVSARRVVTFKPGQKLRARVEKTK

[3] = biological target: T3, DNABII protein from Acinetobacter baumannii (Acinetobacter baumannii); assay: as above
T3 construct: mature
T3 sequence (B7I698 whole entry): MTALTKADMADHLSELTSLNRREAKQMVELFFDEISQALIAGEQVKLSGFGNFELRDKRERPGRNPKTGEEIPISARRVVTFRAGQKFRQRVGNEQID

[4] = biological target: peptide 14, SGSG … (Staphylococcus aureus); assay: ELISA, biotinylated peptides on streptavidin coated plates
[5] = biological target: peptide 13, SGSG … (Staphylococcus aureus); assay: as above
[6] = biological target: peptide 6, SGSG … (Staphylococcus aureus); assay: as above
[7] = biological target: peptide 19, SGSG … (Staphylococcus aureus); assay: as above
peptide 26, […] = peptide 26, […] (Staphylococcus aureus); assay: as above
[8] = biological target: peptide 20, SGSG … (Staphylococcus aureus); assay: as above
[9] = biological target: peptide 12, SGSG … (Staphylococcus aureus); assay: as above
[10] = biological target: peptide 18, SGSG … (Staphylococcus aureus); assay: as above
[11] = biological target: T4, DNABII protein from Klebsiella pneumoniae (IHF; IHF-alpha by the legend of FIGS. 7A-7C) (Klebsiella pneumoniae, UniProt A6TAI1 1-99); assay: ELISA at pH 4.5; printed as 'Affinity (nM)'
T4 construct: also called Kp; K. pneumoniae
T4 sequence: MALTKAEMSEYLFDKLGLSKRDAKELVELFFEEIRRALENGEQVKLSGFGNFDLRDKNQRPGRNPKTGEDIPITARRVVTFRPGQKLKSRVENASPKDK

[12] = biological target: T5, DNABII protein from Pseudomonas aeruginosa (IHF-alpha by the legend of FIGS. 7A-7C) (Pseudomonas aeruginosa, UniProt Q51472 2-100); assay: ELISA at pH 4.5; printed as 'Affinity (nM)'
T5 construct: mature; also called Pa; P. aeruginosa; not shown: poly-histidine tag
T5 sequence: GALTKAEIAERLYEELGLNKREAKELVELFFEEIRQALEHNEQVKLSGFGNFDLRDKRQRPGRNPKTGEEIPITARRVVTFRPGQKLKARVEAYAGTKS

[13] = biological target: T1, full length DNABII protein, HU-beta, …; assay: ELISA at pH 4.5; printed as 'Affinity (nM)'
[14] = biological target: T4, DNABII protein from Klebsiella …; assay: ELISA at pH 5.5; printed as 'Affinity (nM)'
[15] = biological target: T5, DNABII protein from Pseudomonas …; assay: ELISA at pH 5.5; printed as 'Affinity (nM)'
[16] = biological target: T1, full length DNABII protein, HU-beta, …; assay: ELISA at pH 5.5; printed as 'Affinity (nM)'
[17] = biological target: T4, DNABII protein from Klebsiella …; assay: ELISA at pH 3.5; printed as 'Affinity (nM)'
[18] = biological target: T5, DNABII protein from Pseudomonas …; assay: ELISA at pH 3.5; printed as 'Affinity (nM)'
[19] = biological target: T1, full length DNABII protein, HU-beta, …; assay: ELISA at pH 3.5; printed as 'Affinity (nM)'
[20] = biological target: T4, DNABII protein from Klebsiella …; assay: ELISA at pH 6.5; printed as 'Affinity (nM)'
[21] = biological target: T5, DNABII protein from Pseudomonas …; assay: ELISA at pH 6.5; printed as 'Affinity (nM)'
[22] = biological target: T1, full length DNABII protein, HU-beta, …; assay: ELISA at pH 6.5; printed as 'Affinity (nM)'
[23] = biological target: T4, DNABII protein from Klebsiella …; assay: ELISA at pH 2.5; printed as 'Affinity (nM)'
[24] = biological target: T5, DNABII protein from Pseudomonas …; assay: ELISA at pH 2.5; printed as 'Affinity (nM)'
[25] = biological target: T1, full length DNABII protein, HU-beta, …; assay: ELISA at pH 2.5; printed as 'Affinity (nM)'
[26] = biological target: T4, DNABII protein from Klebsiella …; assay: ELISA at pH 7.5; printed as 'Affinity (nM)'
[27] = biological target: T5, DNABII protein from Pseudomonas …; assay: ELISA at pH 7.5; printed as 'Affinity (nM)'
[28] = biological target: T1, full length DNABII protein, HU-beta, …; assay: ELISA at pH 7.5; printed as 'Affinity (nM)'

B1: TRL1338 (antibody, V domains shown)
VH: QLTLRESGPTLVKPTQTLTLTCTFSGFSLSTNGVGVGWIRQPPGKALEWLAIIYWDDDKRYSPSLKSRLTITKDTSKNQVVLTLTNMDPVDTGTYYCAHILGASNYWTGYLRYYFDYWGQGTLVTVST
VL: DIEMTQSPSVSVSPGQTARITCSGEPLAKQYAYWYQQKSGQAPVVVIYKDTERPSGIPERFSGSSSGTTVTLTISGVQAEDEADYHCESGDSSGTYPVFGGGTKLTVL
EC50 [1]: 42 nM

B2: TRL1337 (antibody, V domains shown)
VH: QVQLLESGPGLVKPSETPSLTCTVSGGSIRSYYWSWIRQPPGKGLEWIGYIYYSGSTNYNPSLKSRVTISVDMSKNQFSLKLSSVTAADTAMYYCARVYGGSGSYDFDYWGQGTLVTVSS
VL: DIVLTQSPSASGSPGQSVTISCTGTSSDVGGYNYVSWYQQLPGKAPKLMIYEVTKRPSGVPDRFSGSKSGNTASLTVSGLQAEDEADYYCSSFAGSNNHVVFGGGTKLTVL
EC50 [1]: 6 nM

B3: TRL1361 (antibody, V domains shown)
VH: QVQLVESGGGLAQPGGSLRLSCAASGFIFNTYAMGWVRQAPGKGLEWVSTVSAPGAGTYYTDSVKGRFIISRDNSKNILYLQMNRLRVEDTAVYYCARDQGGPAVAGARIFDYWGQGALVTVSS
VL: DIVLTQSPLSLSVTPGQPASISCKSSQSLLRSDGKTYLCWYLQKPGQPPQLLIYEVSNRVSGVPDRFSGSGSGTDFTLKISRVEAEDVGVYYCMQSIQLRTFGQGTKVEIKR
EC50 [1]: 6.6 nM

B4: TRL1330 (antibody, V domains shown)
VH: QVQLVESGTEVKNPGASVKVSCTASGYKFDEYGVSWVRQSPGQGLEWMGWISVYNGKTNYSQNFQGRLTLTTETSTDTAYMELTSLRPDDTAVYYCATDKNWFDPWGPGTLVTVSS
VL: DIVLTQSPSASGSPGQSITISCTGTNTDYNYVSWYQHHPGKAPKVIIYDVKKRPSGVPSRFSGSRSGNTATLTVSGLQTEDEADYYCVSYADNNHYVFGSGTKVTVL
EC50 [2]: 0.026 nM | EC50 [3]: 0.017 nM

B5: TRL1335 (antibody, V domains shown)
VH: QVQLVESGAEVKKPGESLKISCKGSGYNFTSYWIGWVRQMPGKGLEWMGVIYPDDSDTRYSPSFKGQVTISADKSISTAFLQWSSLKASDTAVYHCARPPDSWGQGTLVTVSS
VL: DIVMTQSPATLSVSPGERATLSCRASQSVSSNLAWYQQKPGLAPRLLIVGASNRATGIPARFSGSGSGTEFTLTISSLQSEDFAFYYCQQYNNWPFTFGPGTKVDVKR
binding result [4]: no binding | binding result [5]: no binding | binding result [6]: no binding | binding result [7]: no binding | binding result (peptide 26, […]): no binding | binding result [8]: no binding | binding result [9]: no binding | binding result [10]: no binding

B6: TRL1068 (antibody, V domains shown)
VH: QVQLVESGPGLVKPSETLSLTCRVSGDSNRPSYWSWIRQAPGKAMEWIGYVYDSGVTIYNPSLKGRVTISLDTSKTRFSLKLTSVIAADTAVYYCARERFDRTSYKSWWGQGTQVTVSS
VL: DIVLTQAPGTLSLSPGDRATLSCRASQRLGGTSLAWYQHRSGQAPRLILYGTSNRATDTPDRFSGSGSGTDFVLTISSLEPEDFAVYYCQQYGSPPYTFGQGTTLDIK
EC50 [11]: 0.05 nM | EC50 [12]: 0.009 nM | EC50 [13]: 0.012 nM | EC50 [14]: 0.009 nM | EC50 [15]: 0.006 nM | EC50 [16]: 0.012 nM | EC50 [17]: 3 nM | EC50 [18]: 0.26 nM | EC50 [19]: 0.36 nM | EC50 [2]: 5 nM | EC50 [3]: 0.01 nM | EC50 [20]: 0.006 nM | EC50 [21]: 0.005 nM | EC50 [22]: 0.012 nM | EC50 [23]: 2.6 nM | EC50 [24]: 2.1 nM | EC50 [25]: 3.5 nM | EC50 [26]: 0.006 nM | EC50 [27]: 0.005 nM | EC50 [28]: 0.01 nM
